B1: CDC42 (residues 1-191) (natural protein)
chain: not shown
B2: DHR2 domain of human DOCK10 (DOCK10^DHR2, residues 1695-2151) (domain or fragment)
chain: TPELRRTWLESMAKIHARNGDLSEAAMCYIHIAALIAEYLKRKGYWKVEKICTASLLSEDTHPCDSNSLLTTPSGGSMFSMGWPAFLSITPNIKEEGAMKEDSGMQDTPYNENILVEQLYMCVEFLWKSERYELIADVNKPIIAVFEKQRDFKKLSDLYYDIHRSYLKVAEVVNSEKRLFGRYYRVAFYGQGFFEEEEGKEYIYKEPKLTGLSEISQRLLKLYADKFGADNVKIIQDSNKVNPKDLDPKYAYIQVTYVTPFFEEKEIEDRKTDFEMHHNINRFVFETPFTLSGKKHGGVAEQCKRRTILTTSHLFPYVKKRIQVISQSSTELNPIEVAIDEMSKKVSELNQLCTMEEVDMIRLQLKLQGSVSVKVNAGPMAYARAFLEETNAKKYPDNQVKLLKEIFRQFADACGQALDVNERLIKEDQLEYQEELRSHYKDMLSELSTVMNEQITG

Tests used:
[1] = target: B2; test: ITC
[2] = target: B2; test: crystal structure
crystal structure = target: the molecule itself; test: crystal structure

dH [1] [kcal/mol]	stoichiometry N [2] [DOCK10^DHR2 per CDC42]	Binder	binding result (crystal structure)
2.034 ± 0.0143	1	B1	–
–	–	B2	binds

Source: article doi:10.1101/2022.06.15.496229 (bioRxiv, 2022)
